Test results as given in patent publication US6699683B1, “Active site of human gamma glutamy hydrolase” (Health Research Incorporated, priority 1996, dated 2004).

T1: human gamma glutamyl hydrolase (hGH) (Homo sapiens, UniProt Q92820, C134A)
T1 construct: A cDNA encoding the 294 amino acid mature form of hGH protein with an N-terminal methionine preceding the first arginine residue; added N-terminal methionine (start codon) (N); made in house; host or cells: E. coli BL21(DE3)pLysS, pET-24a (pET-hGH)
T1 sequence (Q92820 25-318 C134A): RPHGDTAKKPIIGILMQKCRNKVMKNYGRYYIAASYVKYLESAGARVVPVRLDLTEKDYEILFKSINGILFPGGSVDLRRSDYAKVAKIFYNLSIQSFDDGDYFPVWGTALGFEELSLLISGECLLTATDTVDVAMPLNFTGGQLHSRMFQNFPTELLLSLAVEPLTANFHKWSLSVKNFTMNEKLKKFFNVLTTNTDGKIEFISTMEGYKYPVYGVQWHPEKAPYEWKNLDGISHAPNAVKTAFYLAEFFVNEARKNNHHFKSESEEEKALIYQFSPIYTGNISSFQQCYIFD

T2: human gamma glutamyl hydrolase (hGH) (Homo sapiens, UniProt Q92820, C134A)
T2 construct: A cDNA encoding the 294 amino acid mature form of hGH protein with an N-terminal methionine preceding the first arginine residue; added N-terminal methionine (start codon) (N); made in house; host or cells: E. coli BL21(DE3)pLysS, pET-24a (pET-hGH)
T2 sequence (Q92820 with tags, fused parts or gaps C134A): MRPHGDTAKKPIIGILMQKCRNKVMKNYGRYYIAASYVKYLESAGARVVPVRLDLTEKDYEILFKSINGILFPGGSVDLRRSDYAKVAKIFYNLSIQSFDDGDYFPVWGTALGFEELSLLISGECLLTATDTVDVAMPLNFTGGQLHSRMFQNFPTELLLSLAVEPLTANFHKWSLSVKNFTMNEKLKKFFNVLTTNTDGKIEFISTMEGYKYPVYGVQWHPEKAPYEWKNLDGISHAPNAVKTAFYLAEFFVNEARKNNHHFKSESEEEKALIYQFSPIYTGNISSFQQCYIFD

T3: human gamma glutamyl hydrolase (hGH) (Homo sapiens, UniProt Q92820, H195A)
T3 construct: A cDNA encoding the 294 amino acid mature form of hGH protein with an N-terminal methionine preceding the first arginine residue; added N-terminal methionine (start codon) (N); made in house; host or cells: E. coli
T3 sequence (Q92820 25-318 H195A): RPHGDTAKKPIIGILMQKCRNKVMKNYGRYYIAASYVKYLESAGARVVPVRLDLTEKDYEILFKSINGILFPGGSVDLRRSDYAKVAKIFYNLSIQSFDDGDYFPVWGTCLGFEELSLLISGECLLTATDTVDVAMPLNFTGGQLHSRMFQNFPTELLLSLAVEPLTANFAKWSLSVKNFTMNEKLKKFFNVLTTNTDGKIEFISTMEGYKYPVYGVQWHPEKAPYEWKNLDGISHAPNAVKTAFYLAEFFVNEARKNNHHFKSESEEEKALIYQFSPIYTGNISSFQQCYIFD


Legend:
Format in all cases: biochemical
[1] = system: human gamma glutamyl hydrolase (hGH); assay: Activity of baculovirus-expressed hGH mutants on methotrexate polyglutamates; conditions: mutants expressed in the baculovirus system
Text: This model for the active site of hGH has been tested by preparing the Cys110Ala, His220Ala, Glu222Ala, His171Ala, and His171Asn mutants of hGH. The mutants were expressed in the baculovirus system used for active hGH to facilitate the rapid expression and purification of the proteins. The mutant proteins were characterized for activity on methotrexate polyglutamates. […] The role of His171 in hGH has been examined by preparing the mutant His171Ala and the more conservative mutation His171Asn.

[2] = biological target: T1, human gamma glutamyl hydrolase (hGH); assay: hGH activity in chromatography fractions measured with 4-NH2-10-CH3PteGlu5; conditions: substrate 4-NH2-10-CH3PteGlu5
Experimental: Mutant plasmids were used to transform E. colistrain BL21(DE3)pLysS to kanamycin resistance. Cultures (20 ml) were grown for 16 hours at 37° C., 225 rpm in tryptone-phosphate broth (Moore et al. 1993), containing 30 μg/ml kanamycin and 34 μg/ml chloramphenicol. An aliquot (6 ml) of this culture was used to inoculate 500 ml of the same medium. Cultures were incubated at 27° C., 225 rpm until the OD600nm was 0.5-0.6. Isopropyl β-D-thiogalactoside (IPTG) was added to a final concentration of 1 mM and cultures were incubated for a further 3 hours. Cells were harvested by centrifugation and stored at −80° C. Cells from 1 liter of broth were resuspended in 50 ml of 50 mM Tris/HCl pH 7.5 buffer containing 500 mM NaCl and Complete protease inhibitor cocktail (Boehringer Mannheim, Indianapolis, Ind.). The mixture was sonicated and clarified by centrifugation at 20,000 g for 30 minutes at 4° C. A 20-60% ammonium sulfate precipitate was resuspended in 50 mM sodium acetate, pH 5.8, 1 mM octyl-β-D-glucoside (OBG) and 5% glycerol (buffer A). […]

[3] = biological target: T2, human gamma glutamyl hydrolase (hGH); assay: hGH activity assay with 4-NH2-10-CH3PteGlu2 as substrate (Km, Vmax, specific activity) of E. coli-expressed purified proteins; conditions: assayed with either 4-NH2-10-CH3PteGlu2 or the better substrate 4-NH2-10-CH3PteGlu
Experimental: (§1) Mutant plasmids were used to transform E. colistrain BL21(DE3)pLysS to kanamycin resistance. Cultures (20 ml) were grown for 16 hours at 37° C., 225 rpm in tryptone-phosphate broth (Moore et al. 1993), containing 30 μg/ml kanamycin and 34 μg/ml chloramphenicol. An aliquot (6 ml) of this culture was used to inoculate 500 ml of the same medium. Cultures were incubated at 27° C., 225 rpm until the OD600nm was 0.5-0.6. Isopropyl β-D-thiogalactoside (IPTG) was added to a final concentration of 1 mM and cultures were incubated for a further 3 hours. Cells were harvested by centrifugation and stored at −80° C. Cells from 1 liter of broth were resuspended in 50 ml of 50 mM Tris/HCl pH 7.5 buffer containing 500 mM NaCl and Complete protease inhibitor cocktail (Boehringer Mannheim, Indianapolis, Ind.). The mixture was sonicated and clarified by centrifugation at 20,000 g for 30 minutes at 4° C. A 20-60% ammonium sulfate precipitate was resuspended in 50 mM sodium acetate, pH 5.8, 1 mM octyl-β-D-glucoside (OBG) and 5% glycerol (buffer A). After dialysis at 4° C. against buffer A and clarification by centrifugation at 30,000 g, 4° C. for 120 minutes, the dialysate was applied in two aliquots to a Protein Pak SP colummn (1.0 cm×10 cm, Waters Division of Millipore Corp., Milford, Mass.) equilibrated in buffer A. The protein was eluted (1 ml/min) with a linear gradient in buffer A of 0 to 1M NaCl over 60 minutes. Fractions were assayed for hGH activity or for hGH protein by Western blot. Fractions containing hGH were pooled and frozen at −80° C. Wildtype hGH and the C19A, C110A, and C290A mutants eluted as two peaks whereas the C124A mutant eluted as a single peak coincident with the first peak for the other hGH proteins. […] There was 8-10 times more hGH protein in peak 1 than in peak 2. A statistically significant amount (40-82%) of enzyme activity of proteins purified on the SP column was lost when stored either at 4° C. or at −80° C. Thawed aliquots of peak 1 were incubated for 2 hours at 4° C. with 2 ml of pHMB agarose (0.8 μmole/ml agarose) (Sigma Chemical, St. Louis, Mo.) equilibrated in 50 mM sodium acetate pH 5.8, 20 mM OBG, 500 mM NaCl (buffer B). The matrix was poured into a column (0.75 cm×4.5 cm) and washed with buffer B. hGH protein was eluted with buffer B containing additionally 10 mM dithiothreitol and 50 mM β-mercaptoethanol. EDTA (1 mM final) was added to each fraction to inhibit remaining proteases. Fractions containing hGH were pooled and stored at −80° C.
(§2) Km and Vmax activities were measured using variable 4-NH2-10-CH3PteGlu2 substrate concentrations. Specific activities were measured using 200 μM 4-NH2-10-CH3PteGlu2 for 5 minutes.

[4] = system: human gamma glutamyl hydrolase (hGH); assay: as above
Experimental: as §1, §2

[5] = biological target: T3, human gamma glutamyl hydrolase (hGH); assay: Activity of His 171 to Ala hGH mutant from E. coli expression system
Text: CPS contains two domains and catalyzes the synthesis of carbamoyl phosphate from bicarbonate, glutamine, and two molecules of MgATP. The smaller subunit is the site of glutamine hydrolysis to produce ammonia for deliver to the larger subunit. In agreement with the site directed mutagenesis study described above, the model predicts that Cys110 in hGH is analogous to Cys 269 in CPS, which functions as the active site nucleophile attacking the γ-carbonyl of glutamine to form a glutamyl thioester intermediate (Thoden et al. 1998). The model also predicts that His 220 and Glu 222 in hGH are the other two amino acids in the catalytic triad, corresponding to His 353 and Glu 355 in CPS. His 220 and Glu 222 are conserved in the human, rat and mouse glutamyl hydrolase sequences. In the proposed model for hGH, His 220 would activate Cys 110 and Glu 222 would stabilize the resulting positively charged imidizolium cation. […] His 312 in CPS points away from the catalytic triad and is involved in substrate binding not catalysis. When His 312 in CPS was conservatively mutated to Asn, the Km for the substrate was increased 200-fold (Miran et al. 1991). […] Further reinforcing evidence for this alignment model was obtained by running the Pfam HMM search program (Sonnhammer et al. 1998). The Pfam result has an E-value of 0.13 with the GATase model of class-I glutamine amidotransferases. […]

Row | hGH activity in SP cation exchange column fractions [2] | Activity relative to wildtype enzyme [3] | hGH activity (in words) [5] | Molecule | Activity on methotrexate polyglutamates [1] | Specific activity (nmol 4-NH2-10-CH3PteGlu2 hydrolyzed/min/mg protein) ([4]; 200 μM 4-NH2-10-CH3PteGlu2 for 5 minutes, mean ± SD of 3 experiments) | hGH activity (in words) ([4]; purified E. coli-expressed proteins) | Activity on methotrexate tetraglutamate [1]
1 | no fractions contained hGH activity | less than 0.01 % of wildtype enzyme | – | C110A: hGH variant with cysteine 110 replaced by alanine (protein) RPHGDTAKKPIIGILMQKCRNKVMKNYGRYYIAASYVKYLESAGARVVPVRLDLTEKDYEILFKSINGILFPGGSVDLRRSDYAKVAKIFYNLSIQSFDDGDYFPVWGTALGFEELSLLISGECLLTATDTVDVAMPLNFTGGQLHSRMFQNFPTELLLSLAVEPLTANFHKWSLSVKNFTMNEKLKKFFNVLTTNTDGKIEFISTMEGYKYPVYGVQWHPEKAPYEWKNLDGISHAPNAVNPAFYLAEFFVNEARKKNHHFKSESEEEKALIYQFSPIYTGNISSFQQCYIFD | inactive | no activity | no activity | –
2 | – | – | lack of activity | His171Ala: hGH mutant with His 171 changed to Ala (protein) RPHGDTAKKPIIGILMQKCRNKVMKNYGRYYIAASYVKYLESAGARVVPVRLDLTEKDYEILFKSINGILFPGGSVDLRRSDYAKVAKIFYNLSIQSFDDGDYFPVWGTCLGFEELSLLISGECLLTATDTVDVAMPLNFTGGQLHSRMFQNFPTELLLSLAVEPLTANFAKWSLSVKNFTMNEKLKKFFNVLTTNTDGKIEFISTMEGYKYPVYGVQWHPEKAPYEWKNLDGISHAPNAVNPAFYLAEFFVNEARKKNHHFKSESEEEKALIYQFSPIYTGNISSFQQCYIFD | – | – | – | inactive
